Experimental data: patent US20060257938A1, “Method of screening for drugs that block ligand binding to a lipid binding protein” (priority 2005, published 2006)
Several values for one entry are separate records, joined by “and”; a condition that tells them apart may be missing. Equal entries are not always repeated.

Assays:
Assay type in all cases: binding
[1] = Probe fluorescence ratio response to palmitic acid relative to ADIFAB2; conditions: response relative to ADIFAB2
Excerpt: (§1) In an alternate preferred embodiment, the protein is rI-FABP that has Ala substituted for Leu at position 72 (rI-FABP-L72A) with the resulting probe named ADIFAB2. […] Other probes useful in embodiments of the invention are shown in Tables 1-6 and are also described in U.S. application Ser. No. 11/085,792, filed Mar. 21, 2005 which is incorporated herein by reference. The indicated substitutions are with reference to the ADIFAB protein of SEQ ID NO: 2.
(§2) ADIFAB2 also has an altered spectral response, making it especially useful for measurements of FFAu in blood samples (Apple et al, Clinical Proteomics, (2004) 1:41-44, U.S. patent application Ser. No. 10/670,958). The wavelengths at the maximum intensities emitted by these fluorescently-labeled I-FABP's in the absence of FFA is about 420 to 480 nm. The emission wavelengths at the maximum intensities emitted by these fluorescently-labeled I-FABP's with FFA bound are between about 495 to 580 nm. Experiments typically involve measuring the fluorescence response within both emission maxima or at wavelengths for which the effect of interfering molecules such as hemoglobin can be eliminated as described in U.S. application Ser. No. 10/670958 and PCT/US2004/030521 and the calculation of the ratio ‘R’ of the two fluorescence intensities. The baseline value for this ratio, measured in the absence of analyte, is designated R0.
(§3) The intensity ratio (“R” value) is determined as follows. The ratio is calculated using the following formula: R=Fλ1/Fλ2 wherein, Fλ1 is the measured fluorescence intensities (intensity of sample with probe present minus intensity of sample without probe present) at wavelength 1 and Fλ2 is the measured fluorescence intensities (intensity of sample with probe present minus intensity of sample without probe present) at wavelength 2. Then, for a given probe, ΔR, the difference in R value between the measurement in the presence of the test compound (agent) and in the absence of the test compound (agent), is calculated as follows: ΔR=R+agent−R0 In some embodiments, the ΔR value may then be compared to some reference, for example, an agent with a known affinity for a given probe, by ΔR/ΔRreference. Measurements of fluorescence intensities are obtained using standard techniques.

[2] = Probe fluorescence ratio response to linolenic acid relative to ADIFAB2; conditions: response relative to ADIFAB2
Excerpt: as §1, §2, §3

[3] = Probe fluorescence ratio response to arachidonic acid relative to ADIFAB2; conditions: arachidonic acid; response relative to ADIFAB2
Excerpt: as §1, §2, §3

[4] = Probe fluorescence ratio response to oleic acid relative to ADIFAB2; conditions: response relative to ADIFAB2
Excerpt: as §1, §2, §3

[5] = Probe fluorescence ratio response to linoleic acid relative to ADIFAB2; conditions: response relative to ADIFAB2
Excerpt: as §1, §2, §3

B1: 117R, 72A (protein, listed as Rattus norvegicus)
chain: AFDGTWKVDRNENYEKFMEKMGINVVKRKLGAHDNLKLTITQEGNKFTVKESSNFRNIDVVFELGVDFAYSAADGTELTGTWTMEGNKLVGKFKRVDNGKELIAVREISGNELIQTRTYEGVEAKRIFKKE
modifications: PEPTIDE (1)...(131) wild-type rat intestinal fatty acid binding protein
[1]
  DR/DR PA: 0.31
[2]
  DR/DR LNA: 0.70
[3]
  DR/DR AA: 0.64
[4]
  DR/DR OA: 0.61
[5]
  DR/DR LA: 0.70

B2: 117W, 72A (protein, listed as Rattus norvegicus)
chain: AFDGTWKVDRNENYEKFMEKMGINVVKRKLGAHDNLKLTITQEGNKFTVKESSNFRNIDVVFELGVDFAYSAADGTELTGTWTMEGNKLVGKFKRVDNGKELIAVREISGNELIQTWTYEGVEAKRIFKKE
modifications: PEPTIDE (1)...(131) wild-type rat intestinal fatty acid binding protein
[1]
  DR/DR PA: 0.34 and 0.339
[2]
  DR/DR LNA: 0.46 and 0.461
[3]
  DR/DR AA: 0.55 and 0.551
[4]
  DR/DR OA: 0.39 and 0.388
[5]
  DR/DR LA: 0.45 and 0.446

B3: 117V, 72A (protein, listed as Rattus norvegicus)
chain: AFDGTWKVDRNENYEKFMEKMGINVVKRKLGAHDNLKLTITQEGNKFTVKESSNFRNIDVVFELGVDFAYSAADGTELTGTWTMEGNKLVGKFKRVDNGKELIAVREISGNELIQTVTYEGVEAKRIFKKE
modifications: PEPTIDE (1)...(131) wild-type rat intestinal fatty acid binding protein
[1]
  DR/DR PA: 0.49 and 0.498
[2]
  DR/DR LNA: 0.81 and 0.767
[3]
  DR/DR AA: 0.82 and 0.805
[4]
  DR/DR OA: 0.81 and 0.774
[5]
  DR/DR LA: 0.94 and 0.924

B4: 102E, 72A (protein, listed as Rattus norvegicus)
chain: AFDGTWKVDRNENYEKFMEKMGINVVKRKLGAHDNLKLTITQEGNKFTVKESSNFRNIDVVFELGVDFAYSAADGTELTGTWTMEGNKLVGKFKRVDNGKEEIAVREISGNELIQTYTYEGVEAKRIFKKE
modifications: PEPTIDE (1)...(131) wild-type rat intestinal fatty acid binding protein
[1]
  DR/DR PA: 0.30
[2]
  DR/DR LNA: 0.89
[3]
  DR/DR AA: 0.56
[4]
  DR/DR OA: 0.60
[5]
  DR/DR LA: 0.65

B5: 119I, 72A (protein, listed as Rattus norvegicus)
chain: AFDGTWKVDRNENYEKFMEKMGINVVKRKLGAHDNLKLTITQEGNKFTVKESSNFRNIDVVFELGVDFAYSAADGTELTGTWTMEGNKLVGKFKRVDNGKELIAVREISGNELIQTYTIEGVEAKRIFKKE
modifications: PEPTIDE (1)...(131) wild-type rat intestinal fatty acid binding protein
[1]
  DR/DR PA: 0.69 and 0.720
[2]
  DR/DR LNA: 1.06 and 0.940
[3]
  DR/DR AA: 1.01 and 0.920
[4]
  DR/DR OA: 1.08 and 1.050
[5]
  DR/DR LA: 1.10 and 0.960

B6: 117Y, 72A (protein, listed as Rattus norvegicus)
chain: AFDGTWKVDRNENYEKFMEKMGINVVKRKLGAHDNLKLTITQEGNKFTVKESSNFRNIDVVFELGVDFAYSAADGTELTGTWTMEGNKLVGKFKRVDNGKELIAVREISGNELIQTYTYEGVEAKRIFKKE
modifications: PEPTIDE (1)...(131) wild-type rat intestinal fatty acid binding protein
[1]
  DR/DR PA: 1.14
[2]
  DR/DR LNA: 1.40
[3]
  DR/DR AA: 1.35
[4]
  DR/DR OA: 1.36
[5]
  DR/DR LA: 1.44

B7: 119C, 72A (protein, listed as Rattus norvegicus)
chain: AFDGTWKVDRNENYEKFMEKMGINVVKRKLGAHDNLKLTITQEGNKFTVKESSNFRNIDVVFELGVDFAYSAADGTELTGTWTMEGNKLVGKFKRVDNGKELIAVREISGNELIQTYTCEGVEAKRIFKKE
modifications: PEPTIDE (1)...(131) wild-type rat intestinal fatty acid binding protein
[1]
  DR/DR PA: 0.35 and 0.355
[2]
  DR/DR LNA: 1.00 and 1.001
[3]
  DR/DR AA: 1.06 and 1.063
[4]
  DR/DR OA: 0.97 and 0.971
[5]
  DR/DR LA: 1.02 and 1.022

B8: 117S, 72A (protein, listed as Rattus norvegicus)
chain: AFDGTWKVDRNENYEKFMEKMGINVVKRKLGAHDNLKLTITQEGNKFTVKESSNFRNIDVVFELGVDFAYSAADGTELTGTWTMEGNKLVGKFKRVDNGKELIAVREISGNELIQTSTYEGVEAKRIFKKE
modifications: PEPTIDE (1)...(131) wild-type rat intestinal fatty acid binding protein
[1]
  DR/DR PA: 0.55 and 0.593
[2]
  DR/DR LNA: 1.07 and 1.133
[3]
  DR/DR AA: 1.35 and 1.467
[4]
  DR/DR OA: 1.19 and 1.258
[5]
  DR/DR LA: 1.42 and 1.533

B9: 119F, 72A (protein, listed as Rattus norvegicus)
chain: AFDGTWKVDRNENYEKFMEKMGINVVKRKLGAHDNLKLTITQEGNKFTVKESSNFRNIDVVFELGVDFAYSAADGTELTGTWTMEGNKLVGKFKRVDNGKELIAVREISGNELIQTYTFEGVEAKRIFKKE
modifications: PEPTIDE (1)...(131) wild-type rat intestinal fatty acid binding protein
[1]
  DR/DR PA: 0.69
[2]
  DR/DR LNA: 0.93
[3]
  DR/DR AA: 0.93
[4]
  DR/DR OA: 0.94
[5]
  DR/DR LA: 0.90

B10: 117T, 72A (protein, listed as Rattus norvegicus)
chain: AFDGTWKVDRNENYEKFMEKMGINVVKRKLGAHDNLKLTITQEGNKFTVKESSNFRNIDVVFELGVDFAYSAADGTELTGTWTMEGNKLVGKFKRVDNGKELIAVREISGNELIQTTTYEGVEAKRIFKKE
modifications: PEPTIDE (1)...(131) wild-type rat intestinal fatty acid binding protein
[1]
  DR/DR PA: 0.57 and 0.567
[2]
  DR/DR LNA: 0.77 and 0.775
[3]
  DR/DR AA: 0.79 and 0.791
[4]
  DR/DR OA: 0.81 and 0.813
[5]
  DR/DR LA: 0.92 and 0.917

B11: 119G, 72A (protein, listed as Rattus norvegicus)
chain: AFDGTWKVDRNENYEKFMEKMGINVVKRKLGAHDNLKLTITQEGNKFTVKESSNFRNIDVVFELGVDFAYSAADGTELTGTWTMEGNKLVGKFKRVDNGKELIAVREISGNELIQTYTGEGVEAKRIFKKE
modifications: PEPTIDE (1)...(131) wild-type rat intestinal fatty acid binding protein
[1]
  DR/DR PA: 0.46
[2]
  DR/DR LNA: 0.81
[3]
  DR/DR AA: 0.83
[4]
  DR/DR OA: 0.78
[5]
  DR/DR LA: 0.77

B12: 119A, 72A (protein, listed as Rattus norvegicus)
chain: AFDGTWKVDRNENYEKFMEKMGINVVKRKLGAHDNLKLTITQEGNKFTVKESSNFRNIDVVFELGVDFAYSAADGTELTGTWTMEGNKLVGKFKRVDNGKELIAVREISGNELIQTYTAEGVEAKRIFKKE
modifications: PEPTIDE (1)...(131) wild-type rat intestinal fatty acid binding protein
[1]
  DR/DR PA: 0.30 and 0.200
[2]
  DR/DR LNA: 0.65 and 0.520
[3]
  DR/DR AA: 0.70 and 0.540
[4]
  DR/DR OA: 0.63 and 0.490
[5]
  DR/DR LA: 0.61 and 0.450

B13: 119H, 72A (protein, listed as Rattus norvegicus)
chain: AFDGTWKVDRNENYEKFMEKMGINVVKRKLGAHDNLKLTITQEGNKFTVKESSNFRNIDVVFELGVDFAYSAADGTELTGTWTMEGNKLVGKFKRVDNGKELIAVREISGNELIQTYTHEGVEAKRIFKKE
modifications: PEPTIDE (1)...(131) wild-type rat intestinal fatty acid binding protein
[1]
  DR/DR PA: 0.32
[2]
  DR/DR LNA: 0.67
[3]
  DR/DR AA: 0.71
[4]
  DR/DR OA: 0.59
[5]
  DR/DR LA: 0.63
